How the values were obtained:
Assay in all cases: SPR
[1] = molecular target: Ku70-Ku80 heterodimer (Ku);PAXX V199A/F201A V199A;F201A (human?;human) (UniProt P12956+P13010+Q9BUH6)
[2] = molecular target: Ku70-Ku80 heterodimer (Ku);PAXX WT (PAXX1-204, C9orf142) (human?;human) (UniProt P12956+P13010+Q9BUH6)
[3] = molecular target: Ku70-Ku80 heterodimer (Ku) (UniProt P12956+P13010)
Ku70-Ku80 heterodimer (Ku), sequence (P12956 whole entry, chain 1 of 2): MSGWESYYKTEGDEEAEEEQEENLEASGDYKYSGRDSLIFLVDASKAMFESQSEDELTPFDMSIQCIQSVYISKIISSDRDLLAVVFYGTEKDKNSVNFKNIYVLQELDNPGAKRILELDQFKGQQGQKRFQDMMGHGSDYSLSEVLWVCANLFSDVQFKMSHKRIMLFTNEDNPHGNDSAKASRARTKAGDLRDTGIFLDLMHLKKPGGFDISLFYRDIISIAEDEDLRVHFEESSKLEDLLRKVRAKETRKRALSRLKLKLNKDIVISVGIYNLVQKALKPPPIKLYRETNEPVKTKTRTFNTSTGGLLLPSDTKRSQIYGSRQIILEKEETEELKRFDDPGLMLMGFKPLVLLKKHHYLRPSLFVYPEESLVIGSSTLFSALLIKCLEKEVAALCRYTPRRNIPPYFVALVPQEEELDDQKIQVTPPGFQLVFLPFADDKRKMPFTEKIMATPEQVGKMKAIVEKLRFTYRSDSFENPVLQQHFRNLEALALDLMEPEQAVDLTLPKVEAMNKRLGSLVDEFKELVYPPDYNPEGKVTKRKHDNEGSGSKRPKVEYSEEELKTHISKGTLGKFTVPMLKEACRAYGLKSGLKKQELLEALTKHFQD
Ku70-Ku80 heterodimer (Ku), sequence (P13010 whole entry, chain 2 of 2): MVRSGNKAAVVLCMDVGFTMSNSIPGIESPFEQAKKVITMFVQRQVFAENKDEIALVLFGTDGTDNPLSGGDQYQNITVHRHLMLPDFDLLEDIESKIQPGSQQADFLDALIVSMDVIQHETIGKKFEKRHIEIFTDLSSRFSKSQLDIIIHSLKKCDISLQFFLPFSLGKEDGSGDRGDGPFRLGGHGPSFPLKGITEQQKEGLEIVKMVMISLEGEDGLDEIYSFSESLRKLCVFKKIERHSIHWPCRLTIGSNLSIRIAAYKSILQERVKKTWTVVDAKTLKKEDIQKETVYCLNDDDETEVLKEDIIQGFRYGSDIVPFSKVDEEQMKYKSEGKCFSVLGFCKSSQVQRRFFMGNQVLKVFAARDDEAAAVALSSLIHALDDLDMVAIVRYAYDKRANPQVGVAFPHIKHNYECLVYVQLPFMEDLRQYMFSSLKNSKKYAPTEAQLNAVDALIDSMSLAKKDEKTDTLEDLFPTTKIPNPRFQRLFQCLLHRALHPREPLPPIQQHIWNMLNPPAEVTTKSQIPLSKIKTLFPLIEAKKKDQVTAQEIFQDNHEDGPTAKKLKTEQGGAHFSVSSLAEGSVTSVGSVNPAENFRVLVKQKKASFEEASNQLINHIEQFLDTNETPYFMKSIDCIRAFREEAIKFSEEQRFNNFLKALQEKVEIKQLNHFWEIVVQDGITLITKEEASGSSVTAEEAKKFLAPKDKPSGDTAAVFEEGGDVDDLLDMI

Ku70-Ku80 heterodimer (Ku);PAXX V199A/F201A V199A;F201A (human?;human), sequence (P12956 whole entry, chain 1 of 3): as the sequence (P12956 whole entry, chain 1 of 2) above
Ku70-Ku80 heterodimer (Ku);PAXX V199A/F201A V199A;F201A (human?;human), sequence (P13010 whole entry, chain 2 of 3): as the sequence (P13010 whole entry, chain 2 of 2) above
Ku70-Ku80 heterodimer (Ku);PAXX V199A/F201A V199A;F201A (human?;human), sequence (Q9BUH6 whole entry V199A/F201A, chain 3 of 3): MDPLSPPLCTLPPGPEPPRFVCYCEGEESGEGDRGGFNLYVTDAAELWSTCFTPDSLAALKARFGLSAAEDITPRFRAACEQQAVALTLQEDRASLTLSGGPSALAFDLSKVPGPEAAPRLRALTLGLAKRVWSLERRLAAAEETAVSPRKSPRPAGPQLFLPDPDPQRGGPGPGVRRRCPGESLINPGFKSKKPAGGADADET
Ku70-Ku80 heterodimer (Ku);PAXX WT (PAXX1-204, C9orf142) (human?;human), sequence (P12956 whole entry, chain 1 of 3): as the sequence (P12956 whole entry, chain 1 of 2) above
Ku70-Ku80 heterodimer (Ku);PAXX WT (PAXX1-204, C9orf142) (human?;human), sequence (P13010 whole entry, chain 2 of 3): as the sequence (P13010 whole entry, chain 2 of 2) above
Ku70-Ku80 heterodimer (Ku);PAXX WT (PAXX1-204, C9orf142) (human?;human), sequence (Q9BUH6 whole entry, chain 3 of 3): as the sequence (Q9BUH6 whole entry V199A/F201A, chain 3 of 3) above, with A199V, A201F counted along it

With “ATATATCCATGGCTGCCTCACAAACTTCACAAACTGTTGCATCTCACGTTCCTTTTGCAGATTTGTGTTCAACTTTAGAACGAATACAGAAAAGTAAAGGACGTGCA (double strand) [107-bp biotinylated LIG4 PCR fragment]” the binding [1] was “no binding”, the binding [2] was “binds” and the binding [3] was “binds”.

Reference: PMC4338599
